PMC10841698 (Cell, 2023)
Read-outs that look alike come from different tables or passages of the source. Values belong to the binder of their own block, whether it stands above or below them.

Columns and labels:
[1] = biological target: T1, endogenous calreticulin (CALR) of HEK293 cells (human (endogenous in HEK293S GnTI-), UniProt P27797 18-417); assay: cryo-EM structure
T1 sequence (looked up): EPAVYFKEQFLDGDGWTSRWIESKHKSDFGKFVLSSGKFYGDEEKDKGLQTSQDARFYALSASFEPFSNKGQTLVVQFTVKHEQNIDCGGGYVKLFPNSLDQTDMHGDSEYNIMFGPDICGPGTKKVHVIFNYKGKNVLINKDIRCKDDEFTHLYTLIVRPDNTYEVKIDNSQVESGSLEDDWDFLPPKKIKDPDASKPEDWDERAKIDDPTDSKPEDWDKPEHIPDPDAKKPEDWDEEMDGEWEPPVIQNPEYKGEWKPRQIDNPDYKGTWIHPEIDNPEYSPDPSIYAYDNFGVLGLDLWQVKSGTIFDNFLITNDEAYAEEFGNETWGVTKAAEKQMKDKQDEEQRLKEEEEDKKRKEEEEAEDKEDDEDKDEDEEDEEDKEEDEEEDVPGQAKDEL

[2] = biological target: T2, human Wntless (WLS) with a C-terminal Flag tag (human, UniProt Q5T9L3 1-541); assay: cryo-EM structure
T2 sequence: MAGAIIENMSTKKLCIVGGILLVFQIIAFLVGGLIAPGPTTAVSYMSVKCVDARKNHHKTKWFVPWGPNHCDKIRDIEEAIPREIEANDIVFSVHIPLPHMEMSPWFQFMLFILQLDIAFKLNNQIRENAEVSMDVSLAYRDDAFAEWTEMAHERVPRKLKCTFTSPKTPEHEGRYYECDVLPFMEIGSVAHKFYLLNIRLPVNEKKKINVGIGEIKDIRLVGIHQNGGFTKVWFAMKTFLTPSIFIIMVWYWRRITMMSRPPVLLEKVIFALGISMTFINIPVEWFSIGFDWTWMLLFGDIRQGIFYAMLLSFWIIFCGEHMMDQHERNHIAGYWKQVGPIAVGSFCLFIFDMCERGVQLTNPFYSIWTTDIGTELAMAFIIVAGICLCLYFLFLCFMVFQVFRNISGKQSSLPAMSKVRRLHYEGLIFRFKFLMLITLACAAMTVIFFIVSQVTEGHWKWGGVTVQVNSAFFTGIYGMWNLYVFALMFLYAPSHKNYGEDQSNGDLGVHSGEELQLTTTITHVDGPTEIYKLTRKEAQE

[3] = biological target: T1, endogenous calreticulin (CALR) of …; assay: cryo-EM structure; remark: listed apart in the source
[4] = biological target: T3, human full-length RECK without a tag (human, UniProt O95980 23-942); assay: cryo-EM structure
T3 sequence (looked up): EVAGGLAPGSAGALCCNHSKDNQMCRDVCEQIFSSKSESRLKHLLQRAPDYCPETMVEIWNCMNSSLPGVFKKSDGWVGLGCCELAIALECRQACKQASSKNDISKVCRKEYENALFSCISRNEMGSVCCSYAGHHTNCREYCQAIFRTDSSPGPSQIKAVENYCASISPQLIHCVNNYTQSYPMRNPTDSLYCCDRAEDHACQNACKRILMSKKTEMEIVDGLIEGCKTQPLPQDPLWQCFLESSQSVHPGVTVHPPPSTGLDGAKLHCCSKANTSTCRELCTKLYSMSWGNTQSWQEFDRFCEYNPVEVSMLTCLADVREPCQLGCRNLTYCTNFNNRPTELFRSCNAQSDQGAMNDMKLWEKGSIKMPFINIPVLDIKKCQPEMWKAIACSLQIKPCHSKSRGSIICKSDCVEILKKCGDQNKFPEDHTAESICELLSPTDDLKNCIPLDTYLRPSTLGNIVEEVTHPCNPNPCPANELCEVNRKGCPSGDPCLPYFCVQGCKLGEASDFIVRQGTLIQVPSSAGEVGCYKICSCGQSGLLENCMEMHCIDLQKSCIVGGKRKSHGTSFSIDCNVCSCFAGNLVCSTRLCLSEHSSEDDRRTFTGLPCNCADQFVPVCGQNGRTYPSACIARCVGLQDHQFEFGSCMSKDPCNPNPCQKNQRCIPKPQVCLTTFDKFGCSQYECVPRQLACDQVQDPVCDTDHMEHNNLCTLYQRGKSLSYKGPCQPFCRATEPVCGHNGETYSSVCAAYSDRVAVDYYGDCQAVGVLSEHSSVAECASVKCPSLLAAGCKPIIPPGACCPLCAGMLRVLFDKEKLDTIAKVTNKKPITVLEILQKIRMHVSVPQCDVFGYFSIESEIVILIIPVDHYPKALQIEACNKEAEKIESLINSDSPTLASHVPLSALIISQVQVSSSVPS

[5] = biological target: T2, human Wntless (WLS) with a C-terminal …; assay: co-IP

binding result [1]: binds
binding result [2]: binds
B1: human Wnt3a without a tag (ligand, UniProt P56704 19-352, looked up)
chain: SYPIWWSLAVGPQYSSLGSQPILCASIPGLVPKQLRFCRNYVEIMPSVAEGIKIGIQECQHQFRGRRWNCTTVHDSLAIFGPVLDKATRESAFVHAIASAGVAFAVTRSCAEGTAAICGCSSRHQGSPGKGWKWGGCSEDIEFGGMVSREFADARENRPDARSAMNRHNNEAGRQAIASHMHLKCKCHGLSGSCEVKTCWWSQPDFRAIGDFLKDKYDSASEMVVEKHRESRGWVETLRPRYTYFKVPTERDLVYYEASPNFCEPNPETGSFGTRDRTCNVSSHGIDGCDLLCCGRGHNARAERRREKCRCVFHWCCYVSCQECTRVYDVHTCK
modifications: palmitoleate moiety (PAM); N-glycan at Asn298

binding result [3]: binds
binding result [4]: binds
B2: human Wnt7a with a C-terminal GG linker and 6xHis tag (ligand, UniProt O00755 32-349, looked up)
chain: LGASIICNKIPGLAPRQRAICQSRPDAIIVIGEGSQMGLDECQFQFRNGRWNCSALGERTVFGKELKVGSREAAFTYAIIAAGVAHAITAACTQGNLSDCGCDKEKQGQYHRDEGWKWGGCSADIRYGIGFAKVFVDAREIKQNARTLMNLHNNEAGRKILEENMKLECKCHGVSGSCTTKTCWTTLPQFRELGYVLKDKYNEAVHVEPVRASRNKRPTFLKIKKPLSYRKPMDTDLVYIEKSPNYCEEDPVTGSVGTQGRACNKTAPQASGCDLMCCGRGYNTHQYARVWQCNCKFHWCCYVKCNTCSERTEMYTCK
modifications: palmitoleate moiety (PAM) on the conserved serine of hairpin 2; N-glycan at Asn295

binding result [5]: binds
B3: human Wnt7a with a C-terminal GG linker and Strep tag (ligand, UniProt O00755 32-349, looked up)
chain: LGASIICNKIPGLAPRQRAICQSRPDAIIVIGEGSQMGLDECQFQFRNGRWNCSALGERTVFGKELKVGSREAAFTYAIIAAGVAHAITAACTQGNLSDCGCDKEKQGQYHRDEGWKWGGCSADIRYGIGFAKVFVDAREIKQNARTLMNLHNNEAGRKILEENMKLECKCHGVSGSCTTKTCWTTLPQFRELGYVLKDKYNEAVHVEPVRASRNKRPTFLKIKKPLSYRKPMDTDLVYIEKSPNYCEEDPVTGSVGTQGRACNKTAPQASGCDLMCCGRGYNTHQYARVWQCNCKFHWCCYVKCNTCSERTEMYTCK
modifications: palmitoleate moiety (PAM) on the conserved serine of hairpin 2; N-glycan at Asn295
